Experimental data reported in patent publication US20200270125A1 (OMEROS, published 2020).

T1: human MASP-3 (construct not stated) (human)
T1 chain: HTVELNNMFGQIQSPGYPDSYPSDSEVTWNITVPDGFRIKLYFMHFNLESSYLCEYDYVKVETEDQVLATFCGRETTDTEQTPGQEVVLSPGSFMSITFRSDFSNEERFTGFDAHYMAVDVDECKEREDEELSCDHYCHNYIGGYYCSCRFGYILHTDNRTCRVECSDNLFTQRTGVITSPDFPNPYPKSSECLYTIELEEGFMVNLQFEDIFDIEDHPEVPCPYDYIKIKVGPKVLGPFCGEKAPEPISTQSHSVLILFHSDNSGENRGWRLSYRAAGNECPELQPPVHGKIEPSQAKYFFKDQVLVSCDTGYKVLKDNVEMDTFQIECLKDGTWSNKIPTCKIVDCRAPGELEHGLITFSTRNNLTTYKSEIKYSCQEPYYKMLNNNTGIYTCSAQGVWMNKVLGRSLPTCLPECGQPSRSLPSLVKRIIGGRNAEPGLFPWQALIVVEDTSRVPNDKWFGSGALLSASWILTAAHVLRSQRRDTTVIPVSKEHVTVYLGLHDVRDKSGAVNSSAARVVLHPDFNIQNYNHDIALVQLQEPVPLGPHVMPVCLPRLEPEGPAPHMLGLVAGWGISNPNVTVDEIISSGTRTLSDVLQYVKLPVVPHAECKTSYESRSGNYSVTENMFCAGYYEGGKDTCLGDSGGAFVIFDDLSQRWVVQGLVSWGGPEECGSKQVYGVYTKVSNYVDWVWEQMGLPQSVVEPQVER

T2: human MASP-3 CCP1-CCP2-SP fragment (human)
T2 chain: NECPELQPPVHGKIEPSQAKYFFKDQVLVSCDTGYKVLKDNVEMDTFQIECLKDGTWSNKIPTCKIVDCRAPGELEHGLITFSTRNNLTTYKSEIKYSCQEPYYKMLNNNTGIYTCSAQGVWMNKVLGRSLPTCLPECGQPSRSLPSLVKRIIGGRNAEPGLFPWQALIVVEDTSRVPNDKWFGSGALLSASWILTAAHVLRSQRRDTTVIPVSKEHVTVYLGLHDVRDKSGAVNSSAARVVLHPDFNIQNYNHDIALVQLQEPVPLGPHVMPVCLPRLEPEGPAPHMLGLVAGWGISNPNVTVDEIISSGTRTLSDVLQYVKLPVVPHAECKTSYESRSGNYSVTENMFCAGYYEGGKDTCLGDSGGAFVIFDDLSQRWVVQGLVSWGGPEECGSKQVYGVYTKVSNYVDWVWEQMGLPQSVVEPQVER

T3: recombinant full-length mouse MASP-3 (mouse)
T3 construct: Entry is with leader; also called mouse full length MASP-3
T3 chain: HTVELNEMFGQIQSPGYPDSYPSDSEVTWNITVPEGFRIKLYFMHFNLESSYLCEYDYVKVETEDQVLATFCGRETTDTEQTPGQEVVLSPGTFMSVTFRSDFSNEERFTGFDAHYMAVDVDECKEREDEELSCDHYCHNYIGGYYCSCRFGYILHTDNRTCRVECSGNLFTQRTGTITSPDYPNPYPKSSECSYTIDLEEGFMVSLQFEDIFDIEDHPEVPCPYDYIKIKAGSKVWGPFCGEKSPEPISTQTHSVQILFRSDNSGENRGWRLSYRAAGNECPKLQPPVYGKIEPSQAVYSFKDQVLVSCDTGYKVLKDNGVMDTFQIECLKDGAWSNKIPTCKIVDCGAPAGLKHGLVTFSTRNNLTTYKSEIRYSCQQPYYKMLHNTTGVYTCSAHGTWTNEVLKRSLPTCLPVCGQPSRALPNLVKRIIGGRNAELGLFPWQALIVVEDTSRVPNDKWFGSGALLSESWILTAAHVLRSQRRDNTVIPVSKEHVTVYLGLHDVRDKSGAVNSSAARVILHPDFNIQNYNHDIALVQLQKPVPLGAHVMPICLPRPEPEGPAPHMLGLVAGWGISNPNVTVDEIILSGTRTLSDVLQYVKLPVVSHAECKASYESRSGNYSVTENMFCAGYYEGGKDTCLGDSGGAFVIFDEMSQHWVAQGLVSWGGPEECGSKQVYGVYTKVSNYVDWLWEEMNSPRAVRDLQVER

T4: recombinant human MASP-1A (S646A, CCP1-CCP2-SP fragment) (human, UniProt P48740 298-699, limits assumed)
T4 chain: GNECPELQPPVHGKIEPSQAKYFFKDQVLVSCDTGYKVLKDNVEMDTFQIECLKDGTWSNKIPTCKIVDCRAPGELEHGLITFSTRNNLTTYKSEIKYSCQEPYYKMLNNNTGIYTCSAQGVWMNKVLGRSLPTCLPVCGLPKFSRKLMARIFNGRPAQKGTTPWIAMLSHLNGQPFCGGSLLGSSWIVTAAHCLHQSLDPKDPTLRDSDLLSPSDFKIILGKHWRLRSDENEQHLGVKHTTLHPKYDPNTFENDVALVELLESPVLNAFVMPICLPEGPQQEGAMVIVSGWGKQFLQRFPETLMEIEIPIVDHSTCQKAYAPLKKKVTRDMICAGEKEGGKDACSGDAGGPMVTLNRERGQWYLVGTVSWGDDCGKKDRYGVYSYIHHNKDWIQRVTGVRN

T5: recombinant full-length human MASP-3 (human)
T5 construct: Recombinant, full-length; also called full-length human MASP-3 protein; rMASP-3 (full-length)
T5 chain: T1 chain

B1: MASP-3 mAb 13B1 (mouse-human chimeric IgG4) (antibody, V domains shown)
VH: QVQLKQSGAELMKPGASVKLSCKATGYTFTGKWIEWVKQRPGHGLEWIGEILPGTGSTNYNEKFKGKATFTADSSSNTAYMQLSSLTTEDSAMYYCLRSEDVWGTGTTVTVSS
VL: DIVMTQSPSSLAVSAGEKVTMSCKSSQSLLNSRTRKNYLAWYQQKPGQSPKLLIYWASTRESGVPDRFTGSGSGTDFTLTISSVQAEDLAVYYCKQSYNIPTFGGGTKLEIKR
notes: also called mAb M3-1; M3-1
B2: 13B1 Parental Fab (Fab, V domains shown)
VH: B1 VH
VL: B1 VL
notes: Monovalent Fab; also called M3-1 Fab; 13B1 Fab

Key:
[1] = target: T1, human MASP-3 (construct not stated); assay: cell-based or functional assay
[2] = target: T2, human MASP-3 CCP1-CCP2-SP fragment; assay: cell-based or functional assay
[3] = target: T1, human MASP-3 (construct not stated); assay: cell-based or functional assay
[4] = target: T6, recombinant human MASP-2 (CCP1-CCP2-SP fragment) (human, UniProt O00187 298-686, limits assumed); assay: ELISA: recombinant MASP-2 (CCP1-CCP2-SP) coated directly on the plate, A450
T6 construct: domain: CCP1-CCP2-SP fragment
Method in brief: (§1)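 Candidate MASP-3 antibodies incubated 1 h at room temperature on the prepared plate, then detected with mouse anti-human kappa-HRP for 1 h. Developed 5 min with TMB; absorbance read at 450 nm.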

[5] = target: T2, human MASP-3 CCP1-CCP2-SP fragment; assay: sandwich ELISA, MASP-3 CCP1-CCP2-SP captured by αM3-259
Method in brief: as §1

[6] = target: T3, recombinant full-length mouse MASP-3; assay: sandwich ELISA, full-length mouse MASP-3 captured by αM3-259
Method in brief: as §1

[7] = target: T2, human MASP-3 CCP1-CCP2-SP fragment; assay: sandwich ELISA: human MASP-3 CCP1-CCP2-SP captured on aM3-259, mAb detected with anti-human kappa-HRP, A450
Experimental: The plate was then washed (PBS-T, 0.05%) and the candidate MASP-3 antibodies were added followed by incubation for one hour at room temperature. The plate was washed (PBS-T, 0.05%) and a detection antibody was added (mouse anti-human kappa-HRP, SouthernBiotech #9230-05) for one hour at room temperature. After another wash (PBS-T, 0.05%) the plate was developed (5 minutes) with OPT EIA TMB (BD Biosciences #555214). Absorbance reading at A450 was measured using the Spectramax M5e plate reader.

[8] = target: T1, human MASP-3 (construct not stated); assay: not described at this place
[9] = target: T4, recombinant human MASP-1A (S646A, …); assay: ELISA: recombinant MASP-1A (S646A, CCP1-CCP2-SP) coated directly on the plate, A450
Method in brief: as §1

[10] = target: T3, recombinant full-length mouse MASP-3; assay: ELISA, full-length mouse MASP-3 held by a capture antibody, monovalent Fab, anti-kappa-HRP
Description: (§2) Binding affinity determinations were made by coating 96-well plates with an anti-MASP-3 capture antibody that binds the protein from multiple species.

[11] = target: T5, recombinant full-length human MASP-3; assay: ELISA, full-length human MASP-3 held by a capture antibody, monovalent Fab, anti-kappa-HRP
Description: as §2

[12] = target: T1, human MASP-3 (construct not stated); assay: ELISA, monovalent Fab
[13] = target: T1, human MASP-3 (construct not stated); assay: cross-species binding experiments

T6 sequence (O00187 298-686 limits assumed): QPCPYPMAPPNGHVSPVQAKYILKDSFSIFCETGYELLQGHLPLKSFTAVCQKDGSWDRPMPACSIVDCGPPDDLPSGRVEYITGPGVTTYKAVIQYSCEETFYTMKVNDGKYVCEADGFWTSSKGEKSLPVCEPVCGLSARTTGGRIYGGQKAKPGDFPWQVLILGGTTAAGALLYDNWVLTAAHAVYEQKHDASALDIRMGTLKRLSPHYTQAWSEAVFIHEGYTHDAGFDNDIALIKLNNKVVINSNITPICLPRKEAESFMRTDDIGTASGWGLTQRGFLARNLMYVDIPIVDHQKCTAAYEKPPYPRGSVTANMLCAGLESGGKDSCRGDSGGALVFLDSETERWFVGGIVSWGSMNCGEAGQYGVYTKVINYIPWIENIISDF

Binder	IC50, factor Bb deposition on zymosan in 10% CFD-depleted human serum with pro-CFD (flow cytometry) [1] [nM]	inhibition of MASP-3-dependent fluorogenic tripeptide (BOC-V-P-R-AMC) cleavage [2] [nM]	Inhibition of Factor Bb Deposition on Zymosan (IC50 nM), 10% factor D-depleted human serum with pro-factor D [3] [nM]	binding result [4]	EC50 [5] [nM]	EC50 [6] [nM]	EC50 [7] [nM]	binding affinity [8] [pM]	binding result [9]	EC50 [10] [nM]	EC50 [11] [nM]	EC50 [12] [nM]	avidity [13] [pM]
B1	0.311	30.1	0.3	no binding (tested: about 20 nM (log10 about 1.3))	0.059	0.035	0.089	≤ 500	no binding (tested: about 20 nM (log10 about 1.3))				
B2										~0.214	~0.117	0.123	< 500
